Target: OX40 (receptor of OX40L) on tumor-infiltrating T cells of C57BL/6J mice (mouse) (UniProt P47741)
Experiment: cell-based or functional assay

Chain of UniProt P47741 (P47741 20-272): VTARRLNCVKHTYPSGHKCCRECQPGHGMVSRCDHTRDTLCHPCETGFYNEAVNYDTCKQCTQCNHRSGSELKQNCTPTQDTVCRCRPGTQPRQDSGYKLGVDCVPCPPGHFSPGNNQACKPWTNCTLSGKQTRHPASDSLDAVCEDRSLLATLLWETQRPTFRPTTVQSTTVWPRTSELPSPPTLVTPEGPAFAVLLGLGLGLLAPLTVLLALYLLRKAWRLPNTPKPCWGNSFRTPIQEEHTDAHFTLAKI

Substance: murine OX40L (muOX40L) polypeptide (ligand)
- percentages of OX40+FoxP3+CD4+ cells in injected tumors of WT mice (FACS): 19%

From patent US20250179524A1
